This note sets out measurements from patent publication US7696168 (TUFTS MEDICAL CENTER, dated 2010).

Common to all, as to test: cell-based or functional assay
The target in test [1] is T1, human cholecystokinin B receptor (CCKB) (human, UniProt P32239 1-447).
T1 sequence (looked up): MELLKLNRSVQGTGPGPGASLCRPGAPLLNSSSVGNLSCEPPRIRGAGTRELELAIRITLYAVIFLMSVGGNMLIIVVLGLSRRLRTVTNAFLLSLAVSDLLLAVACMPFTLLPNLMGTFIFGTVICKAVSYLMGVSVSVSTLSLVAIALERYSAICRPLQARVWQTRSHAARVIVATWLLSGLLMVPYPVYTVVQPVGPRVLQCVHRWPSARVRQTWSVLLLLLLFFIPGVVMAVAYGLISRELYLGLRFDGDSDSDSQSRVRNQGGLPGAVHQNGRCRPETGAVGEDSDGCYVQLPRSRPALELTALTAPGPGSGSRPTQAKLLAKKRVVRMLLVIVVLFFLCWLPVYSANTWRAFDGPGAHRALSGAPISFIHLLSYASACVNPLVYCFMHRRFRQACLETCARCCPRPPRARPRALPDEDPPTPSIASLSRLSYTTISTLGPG

Test [2] concerns the target T1, human cholecystokinin B receptor (CCKB). This is another data set of the same source.
The target of another test is T2, human PAR2 (human, UniProt P55085 37-397).
T2 sequence (looked up): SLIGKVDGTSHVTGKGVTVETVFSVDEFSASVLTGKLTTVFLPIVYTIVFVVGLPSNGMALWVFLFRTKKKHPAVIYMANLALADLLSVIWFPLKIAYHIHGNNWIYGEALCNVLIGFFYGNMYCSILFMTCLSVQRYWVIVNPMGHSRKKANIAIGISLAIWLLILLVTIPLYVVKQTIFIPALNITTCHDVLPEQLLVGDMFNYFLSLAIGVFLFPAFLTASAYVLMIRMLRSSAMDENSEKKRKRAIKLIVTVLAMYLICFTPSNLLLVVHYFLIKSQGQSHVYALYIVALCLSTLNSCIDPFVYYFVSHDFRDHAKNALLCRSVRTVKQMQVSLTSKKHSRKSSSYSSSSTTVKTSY

The star is where a group is joined. Palmitoyl = CCCCCCCCCCCCCCCC(=O)*

B1: Bpal-18F (Pal-SGSRPTQAKLLAKKRVVF) (peptide)
peptide: Palmitoyl-SGSRPTQAKLLAKKRVVF-NH2
SMILES: CCCCCCCCCCCCCCCC(=O)N[C@@H](CO)C(=O)NCC(=O)N[C@@H](CO)C(=O)N[C@@H](CCCNC(=N)N)C(=O)N1CCC[C@H]1C(=O)N[C@H](C(=O)N[C@@H](CCC(N)=O)C(=O)N[C@@H](C)C(=O)N[C@@H](CCCCN)C(=O)N[C@@H](CC(C)C)C(=O)N[C@@H](CC(C)C)C(=O)N[C@@H](C)C(=O)N[C@@H](CCCCN)C(=O)N[C@@H](CCCCN)C(=O)N[C@@H](CCCNC(=N)N)C(=O)N[C@H](C(=O)N[C@H](C(=O)N[C@@H](Cc1ccccc1)C(N)=O)C(C)C)C(C)C)[C@@H](C)O
As for B1, in test [1], the “Agonist EC50 (activating phase, InsP formation)” value came to 100 nM; the “Agonist Efficacy (% of full response to 300 nM CCK-8)” value came out at 13%; the “Agonist IC50 (inhibitory phase, InsP formation)” value is 1000 nM. In addition, in test [2], the “improvement of potency against the wild-type CCKB peptide” value worked out at 15 fold.

Regarding SLIGKV, the “InsP formation, fold-stimulation by 100 micromolar SLIGKV (P2pal-21 experiment)” value with human PAR2 turned out to be 3.1 fold.
